Reference: the supplement of paper PMC10567573

B1: ZC3H15 (parent)
chain: RKADFKAGKALVISGREVFEFRPE
B2: HESX1 (parent)
chain: ENKPSTCSFSIERILGLDQKKDCV

Variants of: B1
Assay: protein stability index of a GFP-peptide fusion (GPS, HEK-293T) (PSI 1-6); higher = more stable
Settings: c terminus: a fixed tail appended
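Further: lentivirally expressed fusions sorted by FACS into six bins by GFP to DsRed ratio, PSI derived from sequencing read proportions per bin multiplied by bin number.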

Protein stability index of substitutions, site by site:
F21: H 3.57, I 2.68, K 3.58, L 2.82, M 3.29, N 3.73, P 3.69, Q 4.23, R 3.48, S 3.91, T 3.73, V 3.5, W 2.85, Y 3.21
R22: A 3, C 2.24, D 3.72, E 3.53, F 2.98, G 3.4, H 2.72, I 2.81, K 3.24, L 2.35, M 3.54, N 3.07, P 3.25, Q 3.83, S 3.29, T 3.03, V 2.78, W 2.39, Y 2.84
P23: C 2.42, D 3.82, E 3.38, F 2.27, G 3.18, H 2.62, I 1.35, K 3.35, L 1.61, M 2.09, N 3.53, Q 3.31, R 2.73, S 3.44, T 3.17, V 1.94, W 1.24, Y 1.9
E24: A 2.69, C 2.22, D 3.11, F 1.85, G 2.12, H 2.18, I 1.94, K 2.31, L 1.9, M 2, N 2.84, P 2.44, Q 2.84, R 2.43, S 2.78, T 2.52, V 2, W 1.84, Y 2.17

Variants of: B2
Assay: as above
Settings: c terminus: a fixed tail appended

Protein stability index of substitutions, site by site:
E1: A 2.61, C 2.27, D 3.29, F 1.92, G 2.32, H 2.73, I 2.68, K 1.68, L 2.13, M 2.45, N 2.77, P 2.79, Q 2.28, R 2.79, S 2.37, T 2.85, V 2.32, W 2.37, Y 1.95
N2: A 2.15, C 2.57, D 2.94, E 3.52, F 1.97, G 2.49, H 2.57, I 2.32, K 3.37, L 2.79, M 2.53, P 2.82, Q 2.93, R 2.88, S 2.87, T 2.91, V 2.88, W 1.91, Y 1.77
K3: A 3.59, C 2.78, D 3.66, E 3.85, F 2.16, G 3.1, H 3.42, I 2.84, L 2.35, M 2.92, N 3.04, P 3.17, Q 3.41, R 2.58, S 3.84, T 2.53, V 2.71, W 2.93, Y 2.83
P4: A 2.99, C 2.42, D 3.86, F 2.62, G 2.84, H 2.52, I 3.02, K 2.7, L 2.86, M 2.99, N 2.79, Q 3.18, R 3.41, S 2.71, T 3.67, V 3.35, W 2.54, Y 1.94
S5: A 2.94, C 2.71, D 3.16, E 3.77, F 1.96, G 3.31, H 2.81, I 3.02, K 2.85, L 2.18, M 2.75, N 3.09, P 3.48, Q 2.89, R 2.56, T 3.42, V 2.5, W 2.13, Y 2.54
T6: A 3.46, C 2.43, D 3.96, E 3.39, F 2.85, G 3.5, H 3.24, I 2.9, K 2.41, L 3.14, M 2.37, N 3.06, P 2.77, Q 3.12, R 2, S 3.12, V 2.71, W 2.53, Y 3.16
C7: A 3.58, D 4.13, E 4.23, F 3.11, G 3.87, H 3.91, I 1.84, K 3.52, L 2.94, M 3.32, N 4.05, P 4.01, Q 3.96, R 3.92, S 3.98, T 3.74, V 3.17, W 2.33, Y 3.43
S8: A 3.46, C 4.28, D 3.88, E 4.18, F 3.04, G 2.51, H 2.7, I 2.83, K 2.94, L 3.07, M 3.73, N 3.07, P 4.2, Q 3.23, R 2.79, T 3.52, V 3.1, W 2.14, Y 2.66
F9: A 3.86, C 3.43, D 4.24, E 4.41, G 4.43, H 4.15, I 3.43, K 4.3, L 4.07, M 2.79, N 4.2, P 5.09, Q 4.3, R 3.88, S 3.97, T 4.45, V 4.09, W 2.42, Y 3.52
S10: A 2.86, C 2.38, D 4, E 3.01, F 2.84, G 3.27, H 3.5, I 2.62, K 3.77, L 3.05, M 2.48, N 3.27, P 4.28, Q 3.26, R 2.71, T 4.07, V 2.29, W 2.76, Y 2.8
I11: A 3.27, C 3.27, D 4.04, E 5.05, F 3.06, G 3.13, H 3.7, K 4, L 3.58, M 3.42, N 4.63, P 5.12, Q 3.97, R 4.73, S 4.21, T 3.52, V 2.91, W 2.77, Y 3.13
E12: C 2.45, D 3.8, F 1.63, G 3.65, H 2.47, I 1.61, K 2.86, L 1.86, M 1.86, N 3.44, P 2.94, Q 2.57, R 2.46, S 2.84, T 2.94, V 1.64, W 1.48, Y 1.9
R13: A 3.18, C 2.6, D 3.9, E 3.46, F 1.48, G 3.78, H 3.31, I 1.82, K 2.33, L 2.27, M 1.9, N 3.96, P 4.41, Q 2.68, S 3.24, T 3.35, V 2.12, W 1.75, Y 2.08
I14: A 4.54, C 3.97, D 4.11, E 4.88, F 3.8, G 4.09, H 4.1, K 4.31, L 3.11, M 3.15, N 3.83, P 4.34, Q 4.12, R 3.97, S 4.52, T 4.16, V 3.39, W 3.38, Y 3.75
